Measured values from patent US20190359693A1 (Janssen / Centocor, published 2019).

Tests used:
[1] = molecular target: T1, HA of H7N7 A/Netherlands/219/2003 (influenza A virus, UniProt P36346 19-563); test: AlphaLISA competition vs CR9114
[2] = molecular target: T2, HA of H3N2 A/HK/1/68 (influenza A virus, UniProt Q91MA7 17-530); test: BLI steady state
[3] = molecular target: HA of H4N1 A/Northern Pintail/MPB1368/06 (influenza A virus); test: cell-based or functional assay
[4] = molecular target: T2, HA of H3N2 A/HK/1/68; test: cell-based or functional assay
[5] = molecular target: HA of H10N8 A/Jiangxi/346/2013 (influenza A virus); test: cell-based or functional assay
[6] = molecular target: HA of H6N1 A/Eurasian Wigeon/MPG1884/09 (influenza A virus); test: cell-based or functional assay
[7] = molecular target: HA of H10N9 A/Northern Shoveler/MPE2531/08 (influenza A virus); test: cell-based or functional assay
[8] = molecular target: HA of H8N4 A/Eurasian Wigeon/MPH571/08 (influenza A virus); test: cell-based or functional assay
[9] = molecular target: HA of H7N7 A/Northern Shoveler/MPF518/08 (influenza A virus); test: cell-based or functional assay
[10] = molecular target: HA of H2N2 A/Env/HK/MPU3156/05 (influenza A virus); test: cell-based or functional assay
[11] = molecular target: HA of H4N6 A/Great Cormorant/MPB1683/06 (influenza A virus); test: cell-based or functional assay
[12] = molecular target: HA of H1N1 A/HK/54/98 (influenza A virus); test: cell-based or functional assay
[13] = molecular target: HA of H9N2 A/Ck/HK/SSP176/09 (influenza A virus); test: cell-based or functional assay
[14] = molecular target: HA of H14N5 A/Mallard/Astrakhan/263/1982 (influenza A virus); test: cell-based or functional assay
[15] = molecular target: HA of H1N1 A/Mississippi/03/01 274H (influenza A virus); test: cell-based or functional assay
[16] = molecular target: HA of H2N2 A/WF/HK/MPU3156/05 (influenza A virus); test: cell-based or functional assay
[17] = molecular target: T1, HA of H7N7 A/Netherlands/219/2003; test: cell-based or functional assay
[18] = molecular target: HA of H5N1 A/Indonesia/5/05 (influenza A virus); test: cell-based or functional assay
[19] = molecular target: HA of H6N8 A/Eurasian Wigeon/MPD411/07 (influenza A virus); test: cell-based or functional assay
[20] = molecular target: HA of H5N2 A/Eurasian Wigeon/HK/MPF333/07 (influenza A virus); test: cell-based or functional assay
[21] = molecular target: HA of H1N1 A/WSN/33 (influenza A virus, UniProt P03454 18-565); test: cell-based or functional assay
[22] = molecular target: HA of H3N2 A/Fukui/45/04 (influenza A virus); test: cell-based or functional assay
[23] = molecular target: HA of H10N3 A/Common Teal/MPH11/08 (influenza A virus); test: cell-based or functional assay
[24] = molecular target: HA of H3N2 A/Victoria/210/09 (influenza A virus); test: cell-based or functional assay
[25] = molecular target: HA of H1N1 A/Solomon Islands/3/2006 (IVR 145) (influenza A virus); test: cell-based or functional assay
[26] = molecular target: HA of H6N1 A/Taiwan/2/2013 (influenza A virus); test: cell-based or functional assay
[27] = molecular target: HA of H9N2 A/Great Cormorant/MP2934/04 (influenza A virus); test: cell-based or functional assay
[28] = molecular target: HA of H7N9 A/Anhui/1/13 (influenza A virus); test: cell-based or functional assay
[29] = molecular target: HA of H4 A/WF/HK/MPA892/06 (influenza A virus); test: cell-based or functional assay
[30] = molecular target: HA of H9N2 A/HK/466419/09 (influenza A virus); test: cell-based or functional assay
[31] = molecular target: HA of H3N2 A/Aichi/2/68 (influenza A virus, UniProt P03437 17-566); test: cell-based or functional assay
[32] = molecular target: HA of H1N2 A/Env/HK/MPU3156/05 (influenza A virus); test: cell-based or functional assay
[33] = molecular target: HA of H5N2 A/Eurasian Wigeon/MPF461/07 (influenza A virus); test: cell-based or functional assay
[34] = molecular target: HA of H3N2 A/Perth/16/09 (influenza A virus); test: cell-based or functional assay
[35] = molecular target: HA of H3N2 A/Johannesburg/33/94 (influenza A virus); test: cell-based or functional assay
[36] = molecular target: HA of H7N9 A/Shanghai/1/13 (influenza A virus); test: cell-based or functional assay
[37] = molecular target: HA of H7N7 A/PR8 H7N7-NY (influenza A virus); test: cell-based or functional assay
[38] = molecular target: HA of H1N1 A/Christchurch/16/10 (influenza A virus); test: cell-based or functional assay
[39] = molecular target: HA of H7N9 A/Shanghai/2/13 (influenza A virus); test: cell-based or functional assay
[40] = molecular target: HA of H2N2 A/AnnArbor/23/57 (influenza A virus); test: cell-based or functional assay
[41] = molecular target: HA of H2N2 A/Guiyang/1/57 (influenza A virus); test: cell-based or functional assay
[42] = molecular target: HA of B/Florida/04/2006 (Yamagata) (influenza B virus); test: cell-based or functional assay
[43] = molecular target: HA of H7N7 A/Common Teal/MPF139/07 (influenza A virus); test: cell-based or functional assay
[44] = molecular target: HA of H12N5 A/Env/MPK659/09 (influenza A virus); test: cell-based or functional assay
[45] = molecular target: HA of H10N7 A/Chick/Germany/N/49 (influenza A virus); test: cell-based or functional assay
[46] = molecular target: HA of H8N2 A/Env/MPJ1258/09 (influenza A virus); test: cell-based or functional assay
[47] = molecular target: HA of H11N9 A/Northern Pintail/MPC2085/07 (influenza A virus); test: cell-based or functional assay
[48] = molecular target: HA of B/Harbin/7/94 (Yamagata) (influenza B virus); test: cell-based or functional assay
[49] = molecular target: HA of B/Massachusetts/02/12 (Yamagata) (influenza B virus); test: cell-based or functional assay
[50] = molecular target: HA of B/Malaysia/2506/04 (Victoria) (influenza B virus); test: cell-based or functional assay
[51] = molecular target: HA of B/Lee/40 (influenza B virus, UniProt P03460 16-552); test: cell-based or functional assay
[52] = molecular target: HA of B/Harbin/7/94 (Yamagata) (influenza B virus); test: cell-based or functional assay; remark: listed apart in the source
[53] = molecular target: HA of H5N1 A/Vietnam/1194/04 (influenza A virus); test: cell-based or functional assay

B1: SD1038 (VHH)
VHH: EVQLVESGGGLVQPGGSLRLSCAVSISIFDIYAMDWYRQAPGKQRDLVATSFRDGSTNYADSVKGRFTISRDNAKNTLYLQMNSLKPEDTAVYLCHVSLYRDPLGVAGGMGVYWGKGALVTVSS
notes: llama sdAb
[1]
  pIC50: 7.5
[2]
  Kd: 44 nM
[3]
  VNA titer: 485 nM
[4]
  VNA titer: 40.2 nM
[5]
  VNA titer: 239 nM
[6]
  VNA titer: 16.2 nM
[7]
  VNA titer: 327 nM
[8]
  VNA titer: 53.4 nM
[9]
  VNA titer: 441 nM
[10]
  VNA titer: 23.2 nM
[11]
  VNA titer: 275 nM
[12]
  VNA titer: 16.5 nM
[13]
  VNA titer: 90.8 nM
[14]
  VNA titer: 253 nM
[15]
  VNA titer: 4.7 nM
[16]
  VNA titer: 31.4 nM
[17]
  VNA titer: 181 nM
[18]
  VNA titer: 32.8 nM
[19]
  VNA titer: 13.2 nM
[20]
  VNA titer: 11 nM
[21]
  VNA titer: 5 nM
[22]
  VNA titer: 632 nM
[23]
  VNA titer: 301 nM
[24]
  VNA titer: 253 nM
[25]
  VNA titer: 4.1 nM
[26]
  VNA titer: 15.3 nM
[27]
  VNA titer: 105 nM
[28]
  VNA titer: 253 nM
[29]
  VNA titer: > 1000 nM
[30]
  VNA titer: 700 nM
[31]
  VNA titer: 127 nM
[32]
  VNA titer: 40.5 nM
[33]
  VNA titer: 18.8 nM
[34]
  VNA titer: 253 nM
[35]
  VNA titer: 443 nM
[36]
  VNA titer: 503 nM
[37]
  VNA titer: 80.6 nM
[38]
  VNA titer: 2.6 nM
[39]
  VNA titer: 239 nM
[40]
  VNA titer: 33 nM
[41]
  VNA titer: 102 nM
[42]
  VNA titer: > 1000 nM
[43]
  VNA titer: 359 nM
[44]
  VNA titer: > 1000 nM
[45]
  VNA titer: 469 nM
[46]
  VNA titer: 58.7 nM
[47]
  VNA titer: 160 nM

B2: SD1084 (VHH)
VHH: EVQLVESGGGLVQPGGSLKLSCAASGFTFSTSWMYWLRQAPGKGLEWVSVINTDGGTYYADSVKDRFTISRDNAKDTLYLQMSSLKSEDTAVYYCAKDWGGPEPTRGQGTQVTVSS
[48]
  VNA titer: 240 nM
[49]
  VNA titer: 40 nM
[50]
  VNA titer: 34.9 nM
[51]
  VNA titer: > 1000 nM
[52]
  hemagglutination inhibition titer: 1.1 µg/mL
[53]
  hemagglutination inhibition titer: > 50 µg/mL
